Reference: patent US20090305971A1 (YALE UNIVERSITY, published 2009)
Each block holds one binder with its values, some of them ahead of it.

B1: AP-Am-Nogo-B (alkaline phosphatase fusion protein with residues 1-200 at the amino terminus of human Nogo-B) (ligand, UniProt Q9NQC3-2 1-200, looked up)
chain: MEDLDQSPLVSSSDSPPRPQPAFKYQFVREPEDEEEEEEEEEEDEDEDLEELEVLERKPAAGLSAAPVPTAPAAGAPLMDFGNDFVPPAPRGPLPAAPPVAPERQPSWDPSPVSSTVPAPSPLSAAAVSPSKLPEDDEPPARPPPPPPASVSPQAEPVWTPPAPAPAAPPSTPAAPKRRGSSGSVVVDLLYWRDIKKTGV
notes: range 1-200; also called full-length AP-Am-Nogo-B; APNogo200; not shown: placental alkaline phosphatase coding region of vector pcAP-5
B5: Nogo-B receptor (NgBR), endogenous, on human umbilical vein endothelial cells (HUVEC) (receptor)
chain: SWLRVRFGTWNWIWRRCCRAASAAVLAPLGFTLRKPPAVGRNRRHHRHPRGGSCLAAAHHRMRWRADGRSLEKLPVHMGLVITEVEQEPSFSDIASLVVWCMAVGISYISVYDHQGIFKRNNSRLMDEILKQQQELLGLDCSKYSPEFANSNDKDDQVLNCHLAVKVLSPEDGKADIVRAAQDFCQLVAQKQKRPTDLDVDTLASLLSSNGCPDPDLVLKFGPVDSTLGFLPWHIRLTEIVSLPSHLNISYEDFFSALRQYAACEQRLGK
notes: The assays were done on untransfected HUVEC; also called native HUVEC; endogenous NgBR
B6: human Nogo-B receptor (NgBR), expressed from the cloned cDNA on transfected COS-7 or CHO cells (receptor)
chain: SWLRVRFGTWNWIWRRCCRAASAAVLAPLGFTLRKPPAVGRNRRHHRHPRGGSCLAAAHHRMRWRADGRSLEKLPVHMGLVITEVEQEPSFSDIASLVVWCMAVGISYISVYDHQGIFKRNNSRLMDEILKQQQELLGLDCSKYSPEFANSNDKDDQVLNCHLAVKVLSPEDGKADIVRAAQDFCQLVAQKQKRPTDLDVDTLASLLSSNGCPDPDLVLKFGPVDSTLGFLPWHIRLTEIVSLPSHLNISYEDFFSALRQYAACEQRLGK
notes: also called Am-Nogo receptor; Am-NgR

Tests used:
[1] = target: B5; experiment: AP-fusion binding to HUVEC at 4 C, AP activity read-out, Scatchard plot (FIGS. 4 and 5)
Experimental: (§1) To detect AP-Am-Nogo-B binding, cultures were washed with Hanks' balanced salt solution (HBSS) containing 20 mM HEPES, pH 7.5, and 1 mg/mL BSA (HBH). The plates were then incubated with AP-Am-Nogo-B in DMEM containing 20 mM Hepes, pH 7.5, and 1 mg/mL BSA for 2 hours at 4° C. The bound AP-Am-Nogo-B was detected by using the Blue Substrate kit (Vector Laboratories). The blue staining was examined by using the ODYSSEY Infrared Imaging System (Li-Cor, Lincoln, Nebr.) and confirmed by microscopy. Alternatively, the bound AP-Am-Nogo-B was extracted with Triton X-100, and AP activity was colorimetrically quantified by using p-nitrophenyl phosphate (Sigma) as substrate after heat inactivation of endogenous AP. Non-specific binding was determined by measuring binding in the presence of a 100-fold molar excess of recombinant Am-Nogo-B lacking the AP fusion protein. Specific binding was determined by subtracting the non-specific binding from total binding. For determination of apparent Kd, the binding of AP-Am-Nogo-B was measured in triplicate as described above and the Kd value was quantified by using the Scatchard plot program of GraphPad PRISM (one-site binding, linear regression) using the ratio of bound ligand to free ligand as the y axis and bound ligand (pM) as the x axis.

[2] = target: B6; experiment: AP-fusion binding to CHO cells transiently transfected with NgBR cDNA, Scatchard plot (FIG. 7)
Experimental: as §1

[3] = target: B1; experiment: blocking of AP-Am-Nogo-B binding to endothelial cells (FIG. 34)
[4] = target: B5; experiment: surface binding of AP proteins to HUVEC (FIG. 12)
[5] = target: B6; experiment: surface binding of AP proteins to CHO cells expressing NgBR (FIG. 11)
[6] = target: B5; experiment: surface binding of AP proteins to HUVEC (FIG. 15)
[7] = target: B6; experiment: surface binding of AP proteins to CHO cells expressing NgBR (FIG. 14)
[8] = target: T1, AP (recombinant alkaline phosphatase alone) (UniProt P05187 23-511); experiment: surface binding of AP proteins to HUVEC (FIG. 12)
T1 construct: Control protein without a Nogo part; also called AP alone
T1 sequence (P05187 23-511): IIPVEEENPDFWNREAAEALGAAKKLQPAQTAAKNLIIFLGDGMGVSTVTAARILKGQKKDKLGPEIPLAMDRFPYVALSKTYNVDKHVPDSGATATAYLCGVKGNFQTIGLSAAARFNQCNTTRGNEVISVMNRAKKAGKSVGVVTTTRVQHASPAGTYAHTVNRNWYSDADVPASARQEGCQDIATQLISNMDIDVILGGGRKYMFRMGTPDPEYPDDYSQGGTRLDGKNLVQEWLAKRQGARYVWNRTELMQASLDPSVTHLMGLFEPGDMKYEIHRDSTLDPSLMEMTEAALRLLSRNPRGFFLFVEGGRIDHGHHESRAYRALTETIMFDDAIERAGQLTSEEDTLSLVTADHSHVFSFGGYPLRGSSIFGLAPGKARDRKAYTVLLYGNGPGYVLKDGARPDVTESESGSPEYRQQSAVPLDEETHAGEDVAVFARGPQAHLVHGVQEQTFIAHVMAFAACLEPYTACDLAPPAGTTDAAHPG

[9] = target: T1, AP (recombinant alkaline phosphatase …); experiment: AP-fusion binding to COS cells transfected with the NgBR cDNA, AP staining (FIG. 6)
Experimental: as §1, with “axis. […]” for “axis.”

Binder: B1
Kd [1]: 9.7 nM
Kd [2]: 2.74 nM

binding result [3]: binds
B2: mFc-ecto (Fc fusion of amino acids 52-116 of NgBR, HA- and heptahistidine-tagged) (Fc fusion)
chain: LGFTLRKPPAVGRNRRHHRHPRGGSCLAAAHHRMRWRADGRSLEKLPVHMGLVITEVEQEPSFSD
notes: Purified from conditioned media of mammalian cells; also called mFc fusion with the NgBR domain; mFc-NgBR-ectodomain; not shown: mFc, the Fc fragment of IgG; HA tag; heptahistidine tag

binding result [4]: no binding
binding result [5]: no binding
B3: AP-Nogo-B (amino acids 1-180) (ligand, UniProt Q9NQC3-2 1-180, looked up)
chain: MEDLDQSPLVSSSDSPPRPQPAFKYQFVREPEDEEEEEEEEEEDEDEDLEELEVLERKPAAGLSAAPVPTAPAAGAPLMDFGNDFVPPAPRGPLPAAPPVAPERQPSWDPSPVSSTVPAPSPLSAAAVSPSKLPEDDEPPARPPPPPPASVSPQAEPVWTPPAPAPAAPPSTPAAPKRRG
notes: range 1-180; Construction not described; also called AP-Nogo-B (1-180); not shown: alkaline phosphatase part of the AP fusion

binding result [6]: no binding
binding result [7]: no binding
B4: AP-Nogo-A (59-172) (ligand, UniProt Q9NQC3 59-172, looked up)
chain: PAAGLSAAPVPTAPAAGAPLMDFGNDFVPPAPRGPLPAAPPVAPERQPSWDPSPVSSTVPAPSPLSAAAVSPSKLPEDDEPPARPPPPPPASVSPQAEPVWTPPAPAPAAPPST
notes: also called AP-Am-Nogo-A domains; not shown: alkaline phosphatase part of the AP fusion

Binder: B5
binding result [8]: no binding

Binder: B6
binding result [9]: no binding
